Source: patent publication US12448418B2, “Activatable therapeutic peptides and uses thereof” (priority 2022, dated 2025)

Tests used:
[1] = In vivo toxicity evaluation after intravenous treatment; conditions: for H&E staining of kidney sections, pathological features / H&E staining of spleen sections, pathological features / serum alanine aminotransferase (ALT) level / serum aspartate aminotransferase (AST) level / serum blood nitrogen urea (BUN) level: 10 mg/kg AMP equivalent dose
Source text: FIG. 5. In vivo toxicity evaluation of a model ABD-AMP conjugate. (A) Treatment groups and their body conditions. (B) Serum chemistry analysis of ALT, AST, and BUN. (C) H&E staining of spleen and kidneys sections. Arrows indicate protein casts or apoptotic bodies.
Given a favorable biodistribution profile of ABD-AMP conjugate, we next evaluated if our conjugate could improve safety profile of AMP. We performed toxicity evaluation in mice following intravenous treatments with free AMP (D)Pex or conjugate (ABD)2-(EEG)6-S12-(D)Pex at 5 and 10 mg/kg AMP equivalent doses (FIG. 5A). […] In the spleens of the (D)Pex-treated mice, patches of apoptotic lymphocytes were observed. These pathological features were not observed in mice treated with the conjugate at the equivalent AMP dose. Altogether, our conjugate formulation effectively improves safety profile of AMP following systemic administration.

[2] = tested on: Pseudomonas aeruginosa PAO1; assay: Antibacterial assay (MIC) on PAO1, conjugate with and without thrombin pre-cleavage; type: cell-based; conditions: for fold activity masking in term of antibacterial activity on PAO1: peptide formulated into ABD-AMP conjugate, with and without thrombin pre-cleavage (FIGS. 6A and B)
Source text: (§1) FIG. 3. In vitro evaluation of a model ABD-AMP conjugate. (A) Schematic of (ABD)2-(EEG)6-S12-(D)Pex. (B) Antibacterial assay on PAO1 treated with conjugate with and without thrombin pre-cleavage. OD600 indicates extent of bacteria viability. (C) MTS-based mammalian toxicity evaluation of L929 fibroblasts. (D) Hemolysis assay on mouse red blood cells.
(§2) FIG. 6. Evaluation of activity masking for alternative AMPs and alternative application. Antibacterial assay on PAO1 treated with (A) (ABD)2-(EEG)6-512-POL7080 and (B) (ABD)2-(EEG)6-S12-Colistin with and without thrombin pre-cleavage. OD600 indicates extent of bacteria viability. (C) Evaluation of anticancer activity masking of (ABD)2-(EEG)6-S12-(D)Pex on HepG2 cell line by an MTS assay.
(§3) To verify activity masking of our therapeutics, we evaluated antibacterial activity of our model ABD-AMP conjugate candidate ((ABD)2-(EEG)6-S12-(D)Pex) (FIG. 3A) with and without thrombin pre-activation on Pseudomonas aeruginosa PAO1. […] Overall, formulating AMP as an ABD-AMP conjugate provides an activity mask that can be activated with cleavage of the cleavable linker.
To ensure broad application across different therapeutic peptides, we formulated additional AMPS (POL7080 and colistin) into ABD-AMP conjugates and evaluated the extent of activity masking. […] Given that several AMPS are widely explored for anticancer property capitalizing on higher negative charge of cancer cell membrane, we determined whether ABD-AMP conjugate formulation could be utilized in the cancer context. Cell toxicity assay of (ABD)2-(EEG)6-S12-(D)Pex was performed on human hepatocellular carcinoma cell line HepG2 (FIG. 6C).

[3] = Source text: FIG. 4. In vivo pharmacokinetic and biodistribution evaluations of a model ABD-AMP conjugate. […] (B) Pharmacokinetics of ABD-AMP-Cy7 conjugate and a free AMP-Cy7 control. (C) Experimental timeline for time-lapse biodistribution and conjugate activation evaluation in a PAO1 lung infection model. Quantification of intact and active AMP contents in (D) lungs, (E) kidneys, (F) liver, and (G) spleen at different time points. […] (I) Estimated fold change at equivalent lung exposure of active AMP content.
To study time-lapse biodistribution and conjugate activation in an infection context, we first infected mice with PAO1 via intratracheal instillation (IT) (FIG. 4C). The conjugate or free AMP control were intravenously (IV) administered 6 h post infection. The mice were euthanized at different time points, and organs were harvested and homogenized for quantification of conjugate and released AMP contents via SDS-PAGE analysis. […] Alternatively, when estimating at the equivalent lung exposure of active AMP, our conjugate reduced exposure of active AMP to kidneys, liver, and spleen by 3.1, 9.3, and 4.2 fold, respectively (FIG. 4I).

[4] = tested on: L929 fibroblasts; conditions: intact conjugate; MTS
Source text: as §1, §3

[5] = tested on: mouse red blood cells; conditions: intact conjugate
Source text: as §1, §3

[6] = tested on: human hepatocellular carcinoma cell line HepG2; assay: Cell toxicity (MTS) assay on HepG2, anticancer activity masking; type: cell-based
Source text: as §2
To ensure broad application across different therapeutic peptides, we formulated additional AMPS (POL7080 and colistin) into ABD-AMP conjugates and evaluated the extent of activity masking. A 64-fold activity masking was similarly observed for both peptides in term of antibacterial activity on PAO1 (FIGS. 6A and B) confirming robust activity masking of AMPS across diverse secondary structures. Given that several AMPS are widely explored for anticancer property capitalizing on higher negative charge of cancer cell membrane, we determined whether ABD-AMP conjugate formulation could be utilized in the cancer context. Cell toxicity assay of (ABD)2-(EEG)6-S12-(D)Pex was performed on human hepatocellular carcinoma cell line HepG2 (FIG. 6C). […] Altogether, ABD-AMP conjugate platform represents a generalizable platform for formulating diverse activatable therapeutic peptides for different disease applications with aberrant protease microenvironment such as microbial infection and cancer.

## CC[C@@H](C)[C@@H](NC(=O)CN)C(=O)NCC(=O)N[C@H](CCCCN)C(=O)N[C@H](Cc1ccccc1)C(=O)N[C@H](CC(C)C)C(=O)N[C@H](CCCCN)C(=O)N[C@H](CCCCN)C(=O)N[C@H](C)C(=O)N[C@H](CCCCN)C(=O)N[C@H](CCCCN)C(=O)N[C@H](Cc1ccccc1)C(=O)NCC(=O)N[C@H](CCCCN)C(=O)N[C@H](C)C(=O)N[C@H](Cc1ccccc1)C(=O)N[C@@H](C(=O)N[C@H](CCCCN)C(=O)N[C@@H](C(=O)N[C@H](CC(C)C)C(=O)N[C@H](CCCCN)C(=O)N[C@H](CCCCN)C(N)=O)[C@H](C)CC)C(C)C [(D)Pex, GiGkflkkakkfGkafvkilkk-CONH2 (SEQ ID NO: 74)]
[1]; 10 mg/kg, 24 h end point
  mice that did not survive to the end point: 3 out of 5
[1]; mice
  H&E staining of kidney sections, pathological features: significant damage
  H&E staining of spleen sections, pathological features: significant damage
  serum alanine aminotransferase (ALT) level: exceeding the reference range
  serum aspartate aminotransferase (AST) level: exceeding the reference range
  serum blood nitrogen urea (BUN) level: exceeding the reference range
[1]; mice, 10 mg/kg, observed 24 h
  body condition (signs of distress): evident signs of distress

## 6-methyloctanoic acid-Dab-Thr-Dab-(Dab-Dab-(D-Leu)-Leu-Dab-Dab-Thr) (SEQ ID NO: 84) [colistin]
[2]
  fold activity masking in term of antibacterial activity on PAO1: 64 fold

## Cyclo-(T-W-I-(Dab)-(Orn)-(Dab)-(Dab)-W-(Dab)-(Dab)-A-S-p-P) (SEQ ID NO: 88) [POL7080]
[2]
  fold activity masking in term of antibacterial activity on PAO1: 64 fold

B1: (ABD)2-(EEG)6-S12-(D)Pex-Cy7: Cy7-labelled model ABD-AMP conjugate, Table 8, SEQ ID NO: 158 (conjugate)
chain: GLKEAKEKAIEELKKAGITSDYYFDLINKAKTVEGVNALKDEILKAGGGGSGGGGSGGGGSLKEAKEKAIEELKKAGITSDYYFDLINKAKTVEGVNALKDEILKAHHHHHHSPSTPPTPSPSTPPEEGEEGEEGEEGEEGEEGPLGLRSWGCGIGKFLKKAKKFGKAFVKILKKK
modifications: Cy7 label; MISC_FEATURE - Chemically linked -(DBCO-Maleimide)-Azidoacetyl; SITE 155 MISC_FEATURE - D amino acid; MISC_FEATURE - D amino acid; SITE 176 MISC_FEATURE - linked to (Cy7)
[3]; compared to the free (D)Pex-Cy7 control
  fold increase in area-under-the-concentration-time curve (AUC), circulation: 91 fold
[3]; mouse, in vivo
  AUC fold higher active AMP delivered to the lungs: 2.6 fold
  AUC fold reduction of active AMP exposure, kidneys: 1.2 fold
  AUC fold reduction of active AMP exposure, liver: 3.6 fold
  AUC fold reduction of active AMP exposure, spleen: 1.6 fold
  fold reduction of active AMP exposure, kidneys, at equivalent lung exposure: 3.1 fold
  fold reduction of active AMP exposure, liver, at equivalent lung exposure: 9.3 fold
  fold reduction of active AMP exposure, spleen, at equivalent lung exposure: 4.2 fold

B2: (ABD)2-(EEG)6-S12-(D)Pex: model ABD-AMP conjugate, Table 8, SEQ ID NO: 157 (conjugate)
chain: GLKEAKEKAIEELKKAGITSDYYFDLINKAKTVEGVNALKDEILKAGGGGSGGGGSGGGGSLKEAKEKAIEELKKAGITSDYYFDLINKAKTVEGVNALKDEILKAHHHHHHSPSTPPTPSPSTPPEEGEEGEEGEEGEEGEEGPLGLRSWGCGIGKFLKKAKKFGKAFVKILKK
modifications: MISC_FEATURE - Chemically linked by a (DBCO-Maleimide)-Azidoacetyl; SITE 155 MISC_FEATURE - D amino acid; MISC_FEATURE - D amino acid
[2]; intact conjugate versus thrombin pre-activated, PAO1, MIC = lowest treatment concentration that fully inhibits bacteria growth
  fold higher minimum inhibitory concentration (MIC) of intact conjugate: 64 fold
[4]
  masking of mammalian toxicity on L929 fibroblasts: effectively mask
[5]
  masking of hemolysis: effectively mask
[1]; mice
  H&E staining of kidney sections, pathological features: not observed
  H&E staining of spleen sections, pathological features: not observed
  serum alanine aminotransferase (ALT) level: within the normal reference range
  serum aspartate aminotransferase (AST) level: within the normal reference range
  serum blood nitrogen urea (BUN) level: within the normal reference range
[1]; mice, 5 and 10 mg/kg AMP equivalent doses, observed 24 h
  tolerability / body condition: well tolerated up to the highest dose tested with no signs of distress
[6]; thrombin pre-cleaved
  cell toxicity on HepG2, after activation by target protease (Thrombin): restored
[6]; without protease activation
  cell toxicity on HepG2, intact conjugate: natively inactive
